Source: patent US12410253B2, “Compositions comprising anti-NRP2 antibodies” (aTyr Pharma, Inc., priority 2019, dated 2025)
“Also recorded” adds a separate entry of the source.

Experiments:
[1] = molecular target: T1, NRP2/FLT4(VEGFR3) (Homo sapiens, UniProt O60462); assay: Split-luciferase receptor dimerization assay, NRP2/FLT4 with VEGF-C; format: cell-based; conditions: antibody 100 nM; ligand induced dimerization
T1 construct: The complete extracellular domain and transmembrane helices of NRP2a (version 2), NRP2b (version 5); expressed in transfected cells; host or cells: Expi293, transient co-transfection
T1 sequence (O60462 23-859 isoform O60462-3 limits assumed): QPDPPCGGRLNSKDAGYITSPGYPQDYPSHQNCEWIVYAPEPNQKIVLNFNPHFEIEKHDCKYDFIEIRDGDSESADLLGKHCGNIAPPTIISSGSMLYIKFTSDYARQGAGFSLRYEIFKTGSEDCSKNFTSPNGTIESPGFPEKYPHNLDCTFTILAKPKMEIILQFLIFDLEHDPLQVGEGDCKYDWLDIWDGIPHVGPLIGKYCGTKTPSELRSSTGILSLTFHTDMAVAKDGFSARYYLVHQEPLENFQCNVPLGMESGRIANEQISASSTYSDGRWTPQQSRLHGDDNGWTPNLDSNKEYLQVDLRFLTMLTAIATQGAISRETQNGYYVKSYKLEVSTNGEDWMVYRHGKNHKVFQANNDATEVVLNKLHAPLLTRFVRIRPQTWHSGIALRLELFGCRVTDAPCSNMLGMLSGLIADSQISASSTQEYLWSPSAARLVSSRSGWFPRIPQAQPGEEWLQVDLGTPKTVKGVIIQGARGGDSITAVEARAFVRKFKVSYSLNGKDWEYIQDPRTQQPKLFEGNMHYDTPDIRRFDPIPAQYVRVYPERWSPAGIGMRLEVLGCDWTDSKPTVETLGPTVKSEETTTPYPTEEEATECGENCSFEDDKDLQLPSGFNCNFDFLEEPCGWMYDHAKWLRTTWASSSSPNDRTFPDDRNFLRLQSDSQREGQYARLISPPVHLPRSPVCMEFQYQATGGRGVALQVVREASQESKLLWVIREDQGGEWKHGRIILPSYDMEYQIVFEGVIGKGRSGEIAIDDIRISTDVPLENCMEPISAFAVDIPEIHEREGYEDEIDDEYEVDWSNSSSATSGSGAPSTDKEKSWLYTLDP
Experimental: (§1) To further extend the assessment of the biological activity of the anti-NRP2 antibodies, their activity was assessed in a receptor dimerization assay. In brief, vectors encoding a split luciferase pBiT1.1 and pBiT2.1 were obtained from Promega corporation (Madison, Wisconsin). The complete extracellular domain and transmembrane helices of NRP2a (version 2), NRP2b (version 5) (See table N1), FLT4 (VEGFR3), KDR (VEGFR2), and plexin A1 (PLXNA1) were cloned into the vectors and screened for optimal orientation, receptor density, and ligand induced dimerization, following established methods. Expi293 cells (Fisher) were transfected at 1 million cells/mL ˜20 hours prior to the assay with NRP2 and a co-receptor at equal mass amounts. Cells were counted, and 100,000 live cells were plated in a well of a white luminometer plate in Live Cell Imaging Solution (Fisher). Nano-Glo assay substrate (Promega) was added, and the plate was read on a Glomax 96 luminometer at room temperature to establish baseline luminescence. Antibodies were added to the well at 100 nM and the plate was again read to establish a new baseline and monitor the effects of the antibodies on spontaneous receptor dimerization. Depending on the receptor pair, typically 200 nM SEMA3F-p95 (aTyr Pharma), 2 nM VEGF-C(R&D Systems, Minnesota), or 2 nM VEGF165 (R&D Systems, Minnesota) were then added and the plate was again read to measure dimerization of receptors. Normalized responses for each individual well were calculated to the time point prior to addition of ligand, then normalized to no-antibody/no-ligand (baseline signal). Replicates were then processed to give average response and standard deviation. Results are summarized in Table E3 below, and shown graphically in FIGS. 3-10.

[2] = tested on: phospho-Akt levels in U251 glioblastoma cells; assay: Semaphorin 3F mediated inhibition of AKT phosphorylation in U251 cells; format: cell-based; conditions: antibody 10 μg/mL, 25 nM Sema3F 1 hour
Experimental: As shown schematically in FIG. 17, the treatment of cells with Sema3F should specifically block PI3K activity via NRP2 mediated interaction with plexin A1, thereby resulting in reduced phospho-Akt levels. To directly test the ability of the anti-NRP2 antibodies to block this effect, lysates were prepared following standard protocols (MesoScale Discovery, Phospho (Ser473)/Total Akt Assay Whole Cell Lysate Kit #K15100D). Serum starved and confluent U251 cells (Sigma, Cat. 09063001) were treated with 10 nM rapamycin (Sigma, Cat. 553211, 30 minutes), and blocking antibodies or controls were added (10 μg/mL, 30 minutes), followed by 25 nM Sema3F or serum free media for 1 hour in triplicate. Lysate protein concentrations were determined by BCA assay and samples were equalized to 0.4 mg/mL. Phospho and Total AKT were measured following the manufacturer's instructions and percent phosphorylation was calculated by dividing phosphorylated AKT relative units by total AKT relative units. Blocking of Sema3F for each antibody or control was determined by comparing percent phosphorylation of Sema3F treated cells to percent phosphorylation of non-Sema3F treated cells.

[3] = molecular target: T2, NRP2/KDR(VEGFR2) (Homo sapiens, UniProt O60462); assay: Split-luciferase receptor dimerization assay, NRP2/KDR with VEGF-A; format: cell-based; conditions: antibody 100 nM; ligand induced dimerization
T2 construct: The complete extracellular domain and transmembrane helices of NRP2a (version 2), NRP2b (version 5); expressed in transfected cells; host or cells: Expi293, transient co-transfection
T2 sequence (O60462 23-859 isoform O60462-3 limits assumed): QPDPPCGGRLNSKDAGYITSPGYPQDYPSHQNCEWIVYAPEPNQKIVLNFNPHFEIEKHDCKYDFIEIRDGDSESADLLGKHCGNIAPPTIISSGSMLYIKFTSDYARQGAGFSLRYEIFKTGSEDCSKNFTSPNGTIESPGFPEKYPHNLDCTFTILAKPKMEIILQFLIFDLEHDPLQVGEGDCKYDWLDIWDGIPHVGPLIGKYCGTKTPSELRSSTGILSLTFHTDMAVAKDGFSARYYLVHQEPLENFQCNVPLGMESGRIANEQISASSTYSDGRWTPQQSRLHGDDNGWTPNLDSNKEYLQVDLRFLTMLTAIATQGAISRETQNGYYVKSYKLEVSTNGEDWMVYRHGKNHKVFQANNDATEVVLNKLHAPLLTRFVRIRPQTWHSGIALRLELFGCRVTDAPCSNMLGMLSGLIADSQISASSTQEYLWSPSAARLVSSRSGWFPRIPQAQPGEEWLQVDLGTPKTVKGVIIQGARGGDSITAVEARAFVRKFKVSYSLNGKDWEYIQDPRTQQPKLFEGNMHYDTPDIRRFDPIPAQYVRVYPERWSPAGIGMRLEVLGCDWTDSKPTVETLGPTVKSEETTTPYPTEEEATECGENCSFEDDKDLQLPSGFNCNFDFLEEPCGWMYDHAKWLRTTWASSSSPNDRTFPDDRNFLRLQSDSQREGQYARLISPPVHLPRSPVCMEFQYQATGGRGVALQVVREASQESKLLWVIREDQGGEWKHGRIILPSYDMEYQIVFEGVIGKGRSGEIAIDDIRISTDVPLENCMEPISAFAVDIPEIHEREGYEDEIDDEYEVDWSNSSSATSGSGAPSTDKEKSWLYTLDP
Experimental: as §1, with “Expi293 cells (Fisher) were transfected at 1 million cells/mL ˜20 hours prior to the assay with NRP2 and a co-receptor at equal mass amounts.” left out, “Normalized responses for each individual well were calculated to the time point prior to addition of ligand, then normalized to no-antibody/no-ligand (baseline signal). Replicates were then processed to give average response and standard deviation. Results are summarized in Table E3 below, and shown graphically in FIGS. 3-10.” left out

[4] = tested on: BT549; assay: 3D soft agar colony formation assay, BT549; format: cell-based, human
Experimental: Anchorage-independent growth is the ability of transformed cells to grow independently of a solid surface, and is a hallmark of carcinogenesis. The soft agar colony formation assay is a well-established method for characterizing this capability in vitro (J Vis Exp. 2014; (92): 51998). Human triple negative breast cancer (TNBC) cell lines MDA-MB-231 (HTB-26™) and BT549 (HTB122™) were obtained from ATCC and employed in this assay.
MDA-MB-231 was cultured in 1×RPMI media containing 10% FBS and 1% P/S. BT549 was cultured in 1×RPMI media containing 10% FBS, 0.023 U/mL insulin and 1% P/S. Cells were recovered and expanded from frozen stocks for 2-3 passages. The NRP2-high population was sorted out on FACS equipment following cell surface staining by a fluorophore-conjugated anti-NRP2 antibody. […] The chemo drug Cisplatin or 5-FU was added at a final concentration of IC30 or 1/2 IC30, based on a preliminary test that determined their inhibition curves on MDA-MB-231 cells, in combination with the antibodies a-NRP2-10v10 or its isotype control hIgG4 at 100 nM. […] After 6 or 9 days of treatment, the soft agar matrix was dissolved and the formed cell colonies were quantified using CyQuant dye diluted in PBS (provided in the Cell Biolab kit), which produced a fluorescence signal proportional to viable cells.

B1: aNRP2-11v7: humanized, affinity matured anti-NRP2 antibody, target domain b2; VH SEQ ID NO: 51, VL SEQ ID NO: 52 (antibody, V domains shown)
VH: QVQLVQSGAEVKKPGASVKVSCKASGYTFTSFGISWVRQAPGQGLEWIGEIYPRSGNTYYNENFKGRATMTADKSTSTAYMELRSLRSDDTAVYYCARSSGYYGSTPFPYWGQGTLVTVSS
VL: DIQMTQSPSSLSASVGDRVTITCRASQDISNYLNWYQQKPGKAVKLLIYYTSRLHSGVPSRFSGSGSGTDYTFTISSLQPEDIATYYCQQGNTLPWTFGGGTKVEIK
modifications: Variable heavy chain region; Light chain variable region
effect on NRP2-VEGFR3 (FLT4) heterodimerization (in words) [1]: ability to inhibit | blocking of the Sema3F induced decrease in intracellular phospho-Akt levels [2]: blocked the reduction in phospho-Akt levels; also recorded: block semaphorin 3F mediated inhibition of AKT phosphorylation; also recorded: can be blocked | effect on NRP2-KDR dimerization (in words) [3]: increased the ligand induced dimerization signal

B2: aNRP2-10v10: humanized, affinity matured anti-NRP2 antibody, target domain b1, VEGF-C blocking; VH SEQ ID NO: 49, VL SEQ ID NO: 50 (antibody, V domains shown)
VH: EVQLVQSGAEVKKPGATVKISCKVSGFNIKDYYVHWVQQAPGKGLEWMGRIDVEDDETKYAPKFQGRVTITADTSTDTAYMELSSLRSEDTAVYYCATPIYGAREAWFAYWGQGTLVTVSS
VL: DIQMTQSPSSLSASVGDRVTITCTASSSVSSSYLHWYQQKPGKAPKLLIYRTSNLASGVPSRFSGSGSGTDFTLTISSLQPEDFATYYCHQYYRSPPTFGGGTKVEIK
modifications: Variable heavy chain region; Light chain variable region
effect on NRP2-VEGFR3 (FLT4) heterodimerization (in words) [1]: potently inhibit | colony formation, soft agar, antibody treatment alone (BT549) ([4]; aNRP2-10v10 treatment alone): no obvious effect | colony formation by BT549 cells, soft agar ([4]; antibody 100 nM in combination with Cisplatin or 5-FU at certain doses, compared to hIgG4 control): significantly more pronounced | blocking of the Sema3F induced decrease in intracellular phospho-Akt levels [2]: not blocked
